Data reported in paper PMC2932715.

Legend:
[1] = biological target: hemagglutinin (HA) ectodomain from A/New York/107/2003 (H7N2) (influenza A virus A/New York/107/2003 (H7N2)); experiment: crystal structure
[2] = biological target: hemagglutinin (HA) ectodomain from A/New York/107/2003 (H7N2) (influenza A virus A/New York/107/2003 (H7N2)); experiment: SEC

Substance “hemagglutinin (HA) ectodomain from A/New York/107/2003 (H7N2) (natural protein)” has a stoichiometry N [1] of 3 and a stoichiometry N [2] of 3.
